This note sets out measurements from patent US20080152645A1 (ARMAGEN TECHNOLOGIES, published 2008).

This assay addresses T1, Aβ^1-40 amyloid peptide (human, UniProt P05067 672-711).
T1 construct: domain: Aβ^1-40; Plated on 96-well plates in ELISA and IRMA; also called Aβ^1-40 peptide; Aβ^1-40 aggregates
Nature of the assay: ELISA on plated Aβ^1-40, COS cell medium, detection with biotinylated 9E10 MAb. The text has this:
FIG. 29. […] The mAβScFv binds to the amyloid peptide, and the 9E10 anti-c-myc MAb binds to the […] epitope fused to the carboxyl terminus of the protein (FIG. 9). The 9E10 MAb is biotinylated, which enables detection with a conjugate of streptavidin and peroxidase. Medium conditioned by COS cells that were transfected with pCD-mAβScFv produced a high signal in the assay, whereas medium from COS cells exposed only to Lipofectamine (LIPO) produced no signal.
The binding of the mAβScFv to the Aβ¹⁻⁴⁰ amyloid peptide was verified with a specific ELISA. The Aβ¹⁻⁴⁰ amyloid peptide was plated in 96-well plates, followed by the addition of the media conditioned by COS cells transfected with the pCD-mAβScFv plasmid and Lipofectamine-2000. The anti-A, ScFv contains a C-terminal 10-amino acid c-myc epitope, which is recognized by the 9E10 MAb (FIG. 29A). The 9E10 MAb is biotinylated, which enables quantitation of the […] binding to Aβ¹⁻⁴⁰ by a peroxidase detection system and A492 readings (FIG. 29A).

B1: mAβScFv, murine single chain Fv antibody against the Aβ peptide, secreted by COS cells transfected with pCD-mAβScFv (scFv)
scFv: QVQLQQSGAELVKPGATVKLSCKASGYSFNSHYIYWVKQRPGQGLEWIGEINPSNGAMNFNEKFKNKATLTVDKSSSTAYMQLSSLTSEDSAVYYCVRDPTSYWGQGTLVTVSAAKTTPKLEEGEFSEARVDIVMTQTPLSLPVSLGDQASISCRSSQSLVHSYGNTYLHWYLQKPGQSPKLLIYKVSNRFSGVPDRFSGSGSGTDFTLKISRVEAEDLGVYFCSQSTHVPYTFGGGTKLEIKRADAAAAGSEQKLISEEDL
notes: Tested as COS cell conditioned medium; No His tag in this construct; VL has Ile at position 2; also called anti-Aβ ScFv; anti-mAβScFv
Consider B1, for which the binding result was “binds”.
